From the supplement of paper PMC11246515
± gives the standard deviation of the averaged measurements.

Experiment: total protein half-life in vivo (active degradation + dilution); higher = more stable protein
[1] = E. coli NCM3722 delta-clpP, growth: N-lim chemostat, doubling time 6 h
[2] = E. coli NCM3722 delta-hslV, growth: N-lim chemostat, doubling time 6 h
[3] = E. coli NCM3722 delta-lon, growth: N-lim chemostat, doubling time 6 h
[4] = E. coli NCM3722 delta-smpB, growth: N-lim chemostat, doubling time 6 h
[5] = wild type E. coli NCM3722, growth: C-lim chemostat, doubling time 3 h
[6] = wild type E. coli NCM3722, growth: C-lim chemostat, doubling time 6 h
[7] = wild type E. coli NCM3722, growth: C-lim chemostat, doubling time 12 h
[8] = wild type E. coli NCM3722, growth: N-lim chemostat, doubling time 6 h
[9] = wild type E. coli NCM3722, growth: N-lim chemostat, doubling time 12 h
[10] = wild type E. coli NCM3722, growth: P-lim chemostat, doubling time 6 h
[11] = wild type E. coli NCM3722, growth: P-lim chemostat, doubling time 12 h
[12] = E. coli NCM3722 delta-clpP delta-lon delta-hslV, growth: N-lim chemostat, doubling time 6 h

| Sequence | total protein half-life in vivo [1] | total protein half-life in vivo [2] | total protein half-life in vivo [3] | total protein half-life in vivo [4] | total protein half-life in vivo [5] | total protein half-life in vivo [6] | total protein half-life in vivo [7] | total protein half-life in vivo [8] | total protein half-life in vivo [9] | total protein half-life in vivo [10] | total protein half-life in vivo [11] | total protein half-life in vivo [12] |
| --- | --- | --- | --- | --- | --- | --- | --- | --- | --- | --- | --- | --- |
| MRYIRQLCCVSLLCLSGSAVAANVRLQVEGLSGQLEKNVRAQLSTIESDEVTPDRRFRARVDDAIREGLKALGYYQPTIEFDLRPPPKKGRQVLIAKVTPGVPVLIGGTDVVLRGGARTDKDYLKLLDTRPAIGTVLNQGDYENFKKSLTSIALRKGYFDSEFTKAQLGIALGLHKAFWDIDYNSGERYRFGHVTFEGSQIRDEYLQNLVPFKEGDEYESKDLAELNRRLSATGWFNSVVVAPQFDKARETKVLPLTGVVSPRTENTIETGVGYSTDVGPRVKATWKKPWMNSYGHSLTTSTSISAPEQTLDFSYKMPLLKNPLEQYYLVQGGFKRTDLNDTESDSTTLVASRYWDLSSGWQRAINLRWSLDHFTQGEITNTTMLFYPGVMISRTRSRGGLMPTWGDSQRYSIDYSNTAWGSDVDFSVFQAQNVWIRTLYDRHRFVTRGTLGWIETGDFDKVPPDLRFFAGGDRSIRGYKYKSIAPKYANGDLKGASKLITGSLEYQYNVTGKWWGAVFVDSGEAVSDIRRSDFKTGTGVGVRWESPVGPIKLDFAVPVADKDEHGLQFYIGLGPEL [P0ADE4] | 6.81 ± 0.13 h | 6.538 ± 0.011 h | 6.38 ± 0.61 h | 5.85 ± 0.15 h | 3.013 ± 0.0066 h | 6.21 ± 0.37 h | 12.8 ± 0.55 h | 6.59 ± 1 h | 13.5 ± 0.56 h | 6.31 ± 0.16 h | 13.8 ± 0.96 h | – |
| MRYLNTKNIIAAGVLLSCMSSIAWGAIIPDRTRIIMNESDKGEALKLTNQSKNLPYLAQTWIEDTKGNKSRDFIVTVPPMVRLNPSEQIQIRMITQEKIAQLPKDRETLFYFNVREIPPKTDKKNVMQVTMQHALKLFWRPKAIELEDDGVMTYEKVEIIRRNDGSIRFNNKMPYHVTLGYIGTNGVTMLPQTQSLMVTPFSYANTQFKNVPSTFQVGYINDFGGLSFYEINCPVVNNICNISVANRDQ | – | – | – | 5.38 h | – | – | – | 5.39 h | 11.3 h | 5.6 h | 14.3 h | – |
| MSAGKLPEGWVIAPVSTVTTLIRGVTYKKEQAINYLKDDYLPLIRANNIQNGKFDTTDLVFVPKNLVKESQKISPEDIVIAMSSGSKSVVGKSAHQHLPFECSFGAFCGVLRPEKLIFSGFIAHFTKSSLYRNKISSLSAGANINNIKPASFDLINIPIPPLAEQKIIAEKLDTLLAQVDSTKARFEQIPQILKRFRQAVLGGAVNGKLTEKWRNFEPQHSVFKKLNFESILTELRNGLSSKPNESGVGHPILRISSVRAGHVDQNDIRFLECSESELNRHKLQDGDLLFTRYNGSLEFVGVCGLLKKLQHQNLLYPDKLIRARLTKDALPEYIEIFFSSPSARNAMMNCVKTTSGQKGISGKDIKSQVVLLPPVKEQAEIVRRVEQLFAYADTIEKQVNNALARVNNLTQSILAKAFRGELTAQWRAENPDLISGENSAAALLEKIKAERAASGGKKASRKKS | 5.86 ± 0.12 h | 5.48 ± 0.098 h | 6.44 ± 0.56 h | 5.68 ± 0.34 h | 3.08 ± 0.36 h | 6.03 ± 0.34 h | 10.9 ± 0.68 h | 5.84 ± 0.44 h | 10.7 ± 0.57 h | 5.46 ± 0.33 h | 10.9 ± 0.15 h | 5.47 ± 0.81 h |
| MSAIAPGMILIAYLCGSISSAILVCRLCGLPDPRTSGSGNPGATNVLRIGGKGAAVAVLIFDVLKGMLPVWGAYELGVSPFWLGLIAIAACLGHIWPVFFGFKGGKGVATAFGAIAPIGWDLTGVMAGTWLLTVLLSGYSSLGAIVSALIAPFYVWWFKPQFTFPVSMLSCLILLRHHDNIQRLWRRQETKIWTKFKRKREKDPE | 6.64 h | > 8 h | 7.06 h | 5.72 h | – | 6.29 h | – | 6.93 ± 0.78 h | 9.94 h | 6.01 ± 0.4 h | 11 h | 6.82 h |
| MSAIDCIITAAGLSSRMGQWKMMLPWEQGTILDTSIKNALQFCSRIILVTGYRGNELHERYANQSNITIIHNPDYAQGLLTSVKAAVPAVQTEHCFLTHGDMPTLTIDIFRKIWSLRNDGAILPLHNGIPGHPILVSKPCLMQAIQRPNVTNMRQALLMGDHYSVEIENAEIILDIDTPDDFITAKERYTEI | 3 ± 0.059 h | – | – | 1.3 h | – | 2.39 ± 0.048 h | 3.15 ± 0.1 h | – | – | – | – | 4.34 h |
| MSAIENFDAHTPMMQQYLRLKAQHPEILLFYRMGDFYELFYDDAKRASQLLDISLTKRGASAGEPIPMAGIPYHAVENYLAKLVNQGESVAICEQIGDPATSKGPVERKVVRIVTPGTISDEALLQERQDNLLAAIWQDSKGFGYATLDISSGRFRLSEPADRETMAAELQRTNPAELLYAEDFAEMSLIEGRRGLRRRPLWEFEIDTARQQLNLQFGTRDLVGFGVENAPRGLCAAGCLLQYAKDTQRTTLPHIRSITMEREQDSIIMDAATRRNLEITQNLAGGAENTLASVLDCTVTPMGSRMLKRWLHMPVRDTRVLLERQQTIGALQDFTAGLQPVLRQVGDLERILARLALRTARPRDLARMRHAFQQLPELRAQLETVDSAPVQALREKMGEFAELRDLLERAIIDTPPVLVRDGGVIASGYNEELDEWRALADGATDYLERLEVRERERTGLDTLKVGFNAVHGYYIQISRGQSHLAPINYMRRQTLKNAERYIIPELKEYEDKVLTSKGKALALEKQLYEELFDLLLPHLEALQQSASALAELDVLVNLAERAYTLNYTCPTFIDKPGIRITEGRHPVVEQVLNEPFIANPLNLSPQRRMLIITGPNMGGKSTYMRQTALIALMAYIGSYVPAQKVEIGPIDRIFTRVGAADDLASGRSTFMVEMTETANILHNATEYSLVLMDEIGRGTSTYDGLSLAWACAENLANKIKALTLFATHYFELTQLPEKMEGVANVHLDALEHGDTIAFMHSVQDGAASKSYGLAVAALAGVPKEVIKRARQKLRELESISPNAAATQVDGTQMSLLSVPEETSPAVEALENLDPDSLTPRQALEWIYRLKSLV | 5.059 ± 0.028 h | 3.51 ± 0.062 h | 3.99 ± 0.046 h | 3.329 ± 0.022 h | 2.84 ± 0.36 h | 4.96 ± 0.41 h | 9.15 ± 1.4 h | 3.7765 ± 0.0035 h | 5.56 ± 0.91 h | 4.78 ± 0.42 h | 7.5 ± 0.22 h | 5.91 ± 0.07 h |
| MSAIEVKNLVKKFHGQTVLHGIDLEVKPGEVVAIIGPSGSGKTTLLRSINLLEQPEAGTITVGDITIDTARSLSQQKSLIRQLRQHVGFVFQNFNLFPHRTVLENIIEGPVIVKGEPKEEATARARELLAKVGLAGKETSYPRRLSGGQQQRVAIARALAMRPEVILFDEPTSALDPELVGEVLNTIRQLAQEKRTMVIVTHEMSFARDVADRAIFMDQGRIVEQGAAKALFADPEQPRTRQFLEKFLLQ | 5.314 ± 0.015 h | 5.44 ± 0.48 h | 6.65 ± 1.8 h | 5.38 ± 0.14 h | 3.11 ± 0.18 h | 5.25 ± 0.71 h | 10.2 ± 1.1 h | 6.41 ± 1.5 h | 9.13 ± 1.8 h | 5.16 ± 0.33 h | 12.2 ± 1.3 h | – |
